# Test results as given in US20140221623A1 (Ablynx, published 2014).
# Numbering of substitutions follows the chain as printed. Where “and” joins values, the source holds several entries; their conditions need not be identical. Equal values may be shown once. Read-outs that look alike come from different tables or passages of the source.
# T1: IL6-R on U266 cells (human, UniProt P08887 20-468)
# T1 sequence (looked up): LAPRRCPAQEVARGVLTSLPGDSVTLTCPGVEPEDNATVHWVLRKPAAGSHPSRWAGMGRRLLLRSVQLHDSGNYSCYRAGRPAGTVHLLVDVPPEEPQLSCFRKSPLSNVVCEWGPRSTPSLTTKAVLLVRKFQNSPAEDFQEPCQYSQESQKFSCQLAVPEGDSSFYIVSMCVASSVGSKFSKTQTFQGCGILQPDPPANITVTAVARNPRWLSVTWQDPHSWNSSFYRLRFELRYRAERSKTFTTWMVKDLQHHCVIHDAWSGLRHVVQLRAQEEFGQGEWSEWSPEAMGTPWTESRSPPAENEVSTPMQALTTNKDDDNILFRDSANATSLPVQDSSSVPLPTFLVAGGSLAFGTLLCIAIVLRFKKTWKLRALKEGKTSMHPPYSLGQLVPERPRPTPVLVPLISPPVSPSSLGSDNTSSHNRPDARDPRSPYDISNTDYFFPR
# T2: Human soluble IL6-R (human, UniProt P08887 20-358)
# T2 construct: Bought soluble receptor; biotinylated in some Alphascreen assays; also called sIL6-R; hIL-6R
# T2 sequence (looked up): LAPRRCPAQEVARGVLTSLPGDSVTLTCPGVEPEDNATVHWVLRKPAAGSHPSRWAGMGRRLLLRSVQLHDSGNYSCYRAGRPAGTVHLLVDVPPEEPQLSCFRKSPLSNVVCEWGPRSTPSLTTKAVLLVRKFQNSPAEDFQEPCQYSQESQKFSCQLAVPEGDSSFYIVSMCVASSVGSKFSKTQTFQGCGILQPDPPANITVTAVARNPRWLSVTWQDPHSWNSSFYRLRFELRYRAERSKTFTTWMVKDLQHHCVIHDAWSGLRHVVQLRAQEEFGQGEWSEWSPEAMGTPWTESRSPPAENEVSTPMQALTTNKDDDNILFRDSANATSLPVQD
# B1: IL6R04 (VHH)
# VHH: EVQLVESGGGLVQAGGSLRLSCAASGFTFDDYDIGWFRQAPGKEREGVSGISSSDGNTYYADSVKGRFTISSDNAKNTVYLQMNSLKPEDTAVYYCAAEPPDSSWYLDGSPEFFKYWGQGTQVTVSS
# notes: also called PMP32C9; PMP 32 C9
# B2: IL6R09 (VHH)
# VHH: EVQLVESGGGLVQAGGSLRLSCAASGRTSSSYDMTWYRQVPGKEREFVAVISWSGGSTYYADSVKGRFTISRDNAKNTVYLQMNSLKPEDTAIYYCNAYTGGGDDYWGQGTQVTVSS
# notes: also called PMP34G9; PMP 34 G9
# B3: IL6R07 (VHH)
# VHH: EVQLVESGGGLVQPGGSLRLSCAASGFTLDYGAIGWFRQAPGKEREGVSCISSSTGSTYYADSVKGRFTISRDNGKNTVYLQMNSLKPEDTAVYYCAADKMWSPCLVAANEEALFEYDYWGQGTQVTVSS
# notes: also called PMP33A3; PMP 33 A3
# B4: IL6R13 (VHH)
# VHH: EVQLVESGGGLVQPGGSLRLSCAASGFTFDDYGMSWVRQAPGRATEWVSAISWNGNNTYYTESMKGRFTISRDNAKNTVYLQMNSLKPEDTAVYYCVKGSTAIVGVPPTYPDEYDYWGQGTQVTVSS
# notes: also called PMP35H4; PMP 35 H4
# B5: IL6R88 (VHH)
# VHH: B4 VHH with R43K, A44G, V79L, K87R, Q122L
# notes: Humanized variant of IL6R13
# B6: IL6R06 (VHH)
# VHH: EVQLVESGGGLVQAGGSLRLSCAASGNIFDDNTMGWTWNRQPPGKQRELVAIIATDGSTNYADSVKGRFTISRDNAKNTVYLQMNSLKPEDTAVYYCNLFSLRLGRDYWGQGTQVTVSS
# notes: also called PMP32E2; PMP 32 E2
# B7: IL6R05 (VHH)
# VHH: EVQLVESGGGLVQPGGSLRLSCAASGFTFGSYDMSWVRQAPGKGPEWVSAINSGGGSTYYADSVKGRFTISRDNAKNTLYLQMNSLKPEDTAVYYCATDWRYSDYDLPLPPPGDYWGQGTQVTVSS
# notes: also called PMP32E10; PMP 32 E10
# B8: IL6R10 (VHH)
# VHH: EVQLVESGGGLVQAGGSLRLSCAASGRTFSSYDMGWYRQAPGKEREFVAVIHWSSGSTYYADPVKGRFTISRDNAKNTVYLQMNSLKPEDTAIYYCNAFLPGPEGFHDYWGQGTQVTVSS
# notes: also called PMP35C10; PMP 35 C10
# B9: IL6R14 (VHH)
# VHH: EVQLVESGGGLVQPGGSLRLSCAASGFSLDYYAIGWFRQAPGKEREGVSCMDSSSGTTSTYYSDSVKGRFTISRDDAKNTVYLQMNSLKPEDTAVYYCAADGHLNWGQRYVPCSQISWRGWNDYWGQGTQVTVSS
# notes: also called PMP40H5; PMP 40 H5
# B10: IL6R03 (VHH)
# VHH: EVQLVESGGGLVQAGGSLRLSCAASGSIFKVNAMGWYRQAPGKQRELVAGIISGGSTNYADSVKGRLTISRDNAKNTVYLQMNSLKPEDTAVYYCSFVTTNSDYDLGRDYWGQGTQVTVSS
# notes: also called PMP31A4; PMP 31 A4
# Legend:
# [1] = target: T1, IL6-R on U266 cells; assay: cell-based or functional assay
# [2] = target: T1, IL6-R on U266 cells; assay: cell-based or functional assay; remark: listed apart in the source
# [3] = target: T2, Human soluble IL6-R; assay: Alphascreen, 100 nM Nanobody; competitor Reference-Fab on beads
# [4] = target: T1, IL6-R on U266 cells; assay: cell-based or functional assay; remark: listed apart in the source
# [5] = target: T1, IL6-R on U266 cells; assay: cell-based or functional assay; remark: listed apart in the source
# [6] = target: T2, Human soluble IL6-R; assay: SPR (Biacore 3000), IL6-R on CM5 chip
# [7] = target: T2, Human soluble IL6-R; assay: SPR (Biacore), off-rate
# [8] = target: T2, Human soluble IL6-R; assay: SPR (Biacore 3000), IL6-R on CM5 chip; remark: listed apart in the source
# [9] = target: T2, Human soluble IL6-R; assay: SPR (Biacore 3000), IL6-R on CM5 chip; remark: listed apart in the source
# [10] = target: T2, Human soluble IL6-R; assay: SPR (Biacore 3000), IL6-R on CM5 chip; row without label, read as kd
molecule,measurement,setting,value
MAb BN-12 (antibody),"IC50, XG-1 proliferation",[1],0.272 nM
MAb BR-6 (antibody),"IC50 (+1% HSA), TF-1 proliferation",[1],0.088
same,"IC50 (w/o HSA), TF-1 proliferation",[1],0.042
same,"IC50, XG-1 proliferation",[1],0.064 nM
B1,"IC50, XG-1 proliferation",[2],0.089 nM
same,% binding retained in competition with Reference-Fab,[3],50%
same,"IC50, TF-1 proliferation",[4],0.545 nM
same,"IC50, XG-1 proliferation with 1 mg/mL human serum albumin",[5],0.099 nM
same,Kd,[6],0.2 nM
same,koff,[6],0.000112 s⁻¹
same,kon,[6],536000 M⁻¹ s⁻¹
same,koff,[7],0.00015 s⁻¹
same,Kd,[8],0.26 nM
same,koff,[8],9.42e-05 s⁻¹ and 0.00015 s⁻¹
same,kon,[8],365000 M⁻¹ s⁻¹
B2,"IC50, XG-1 proliferation",[2],2.75 nM
same,% binding retained in competition with Reference-Fab,[3],62%
same,"IC50, TF-1 proliferation",[4],10 nM
same,"IC50, XG-1 proliferation with 1 mg/mL human serum albumin",[5],2.98 nM
same,koff,[7],0.00139 s⁻¹
same,Kd,[8],2.01 nM and 1.17 nM
same,koff,[8],0.0013 s⁻¹ and 0.00139 s⁻¹ and 0.00129 s⁻¹
same,kon,[8],641000 M⁻¹ s⁻¹ and 1.11e+06 M⁻¹ s⁻¹
B3,"IC50, XG-1 proliferation",[2],50.5 nM
same,% binding retained in competition with Reference-Fab,[3],80%
same,"IC50, TF-1 proliferation",[4],35 nM
same,koff,[7],0.000242 s⁻¹
same,koff,[8],0.000242 s⁻¹
B4,"IC50, XG-1 proliferation",[2],1.4 nM
same,% binding retained in competition with Reference-Fab,[3],25%
same,"IC50, TF-1 proliferation",[4],7.2 nM
same,"IC50, XG-1 proliferation with 1 mg/mL human serum albumin",[5],1.32 nM
same,koff,[7],0.000178 s⁻¹
same,Kd,[8],0.53 nM and 0.79 nM
same,koff,[8],0.000121 s⁻¹ and 0.000109 s⁻¹ and 0.000178 s⁻¹
same,kon,[8],231000 M⁻¹ s⁻¹ and 137000 M⁻¹ s⁻¹
B5,Kd,[9],0.9 nM
same,koff,[9],0.00031 s⁻¹
same,kon,[9],230000 M⁻¹ s⁻¹
same,koff,[10],0.000213 s⁻¹
B6,"IC50, XG-1 proliferation",[2],42 nM
same,% binding retained in competition with Reference-Fab,[3],36%
same,"IC50, TF-1 proliferation",[4],77.2 nM
same,koff,[7],0.000886 s⁻¹
same,Kd,[8],7.1 nM
same,kon,[8],1.07e+06 M⁻¹ s⁻¹
B7,"IC50, XG-1 proliferation",[2],7.29 nM
same,% binding retained in competition with Reference-Fab,[3],64%
same,"IC50, TF-1 proliferation",[4],19.9 nM
same,koff,[7],0.00127 s⁻¹
same,Kd,[8],9.79 nM
same,koff,[8],0.00141 s⁻¹ and 0.00127 s⁻¹
same,kon,[8],144000 M⁻¹ s⁻¹
B8,"IC50, XG-1 proliferation",[2],2.55 nM
same,% binding retained in competition with Reference-Fab,[3],102%
same,"IC50, TF-1 proliferation",[4],9.15 nM
same,koff,[7],0.000509 s⁻¹
same,Kd,[8],1.27 nM
same,koff,[8],0.000526 s⁻¹ and 0.000509 s⁻¹
same,kon,[8],414000 M⁻¹ s⁻¹
B9,"IC50, XG-1 proliferation",[2],0.603 nM
same,% binding retained in competition with Reference-Fab,[3],96%
same,"IC50, TF-1 proliferation",[4],1.75 nM
same,"IC50, XG-1 proliferation with 1 mg/mL human serum albumin",[5],0.751 nM
same,koff,[7],0.000114 s⁻¹
same,Kd,[8],0.25 nM
same,koff,[8],0.0001 s⁻¹ and 0.000114 s⁻¹
same,kon,[8],402000 M⁻¹ s⁻¹
B10,"IC50, XG-1 proliferation",[2],16.2 nM
same,% binding retained in competition with Reference-Fab,[3],5%
same,"IC50, TF-1 proliferation",[4],28.1 nM
same,"IC50, XG-1 proliferation with 1 mg/mL human serum albumin",[5],17.5 nM
same,koff,[7],0.0016 s⁻¹
same,Kd,[8],3.03 nM
same,koff,[8],0.00147 s⁻¹ and 0.0016 s⁻¹
same,kon,[8],484000 M⁻¹ s⁻¹
